In patent US20150037328A1 (Pfizer, published 2015):
Positions count from the first letter of the chain named. In names and notes the source's numbering stands.

B1: h3G10.A57 VH / h3G10.2.72 VL Fab (Fab, V domains shown)
VH: EVQLVESGGGLVQPGGSLRLSCAASGFTFSDYYMSWVRQAPGKGLEWVGFIRHKANFYTTEYSTSVKGRFTISRDDSKNSLYLQMNSLKTEDTAVYYCARDLPGFAYWGQGTLVTVSS
VL: DIVMTQSPDSLAVSLGERATINCKSSQSLFNSRTRKNYLAWYQQKPGQPPKLLIYWASARESGVPDRFSGSGSGTDFTLTISSLQAEDVAVYYCKQSFRLRTFGGGTKVEIK
notes: Tested as Fab
B2: h3G10.A57 VH / h3G10.A58A VL Fab (Fab, V domains shown)
VH: B1 VH
VL: B1 VL with R33H, E61G
notes: Tested as Fab
B3: h3G10.2.37 VH / h3G10.2.72 VL Fab (Fab, V domains shown)
VH: B1 VH with T60R
VL: B1 VL
notes: Tested as Fab
B4: h3G10.2.5 VH / h3G10.2.72 VL Fab (Fab, V domains shown)
VH: B1 VH with F57I
VL: B1 VL
notes: Tested as Fab
B5: h3G10.B44 VH / h3G10.A58A VL Fab (Fab, V domains shown)
VH: B1 VH with G49S, D76N, S80T, K89R, T90A, R100K
VL: B1 VL with R33H, E61G
notes: Tested as Fab
B6: h3G10.1.7 VH / h3G10.2.72 VL Fab (Fab, V domains shown)
VH: B1 VH with F57K
VL: B1 VL
notes: Tested as Fab
B7: h3G10.1.60 VH / h3G10.2.72 VL Fab (Fab, V domains shown)
VH: B1 VH with F57V
VL: B1 VL
notes: Tested as Fab
B8: h3G10.A57 VH / h3G10 VL Fab (Fab, V domains shown)
VH: B1 VH
VL: B1 VL with R99N
notes: Tested as Fab; also called h3G10.A57 VH / h3G10 L
B9: h3G10.1.91 VH / h3G10.2.72 VL Fab (Fab, V domains shown)
VH: B1 VH with Y58E
VL: B1 VL
notes: Tested as Fab
B10: h3G10.2.54 VH / h3G10.2.72 VL Fab (Fab, V domains shown)
VH: B1 VH with K67R
VL: B1 VL
notes: Tested as Fab
B11: h3G10.3.25 VH / h3G10.2.72 VL Fab (Fab, V domains shown)
VH: B1 VH with V66D
VL: B1 VL
notes: Tested as Fab
B12: h3G10.2.45 VH / h3G10.2.72 VL Fab (Fab, V domains shown)
VH: B1 VH with S65W
VL: B1 VL
notes: Tested as Fab
B13: h3G10.2.42 VH / h3G10.2.72 VL Fab (Fab, V domains shown)
VH: B1 VH with A55V
VL: B1 VL
notes: Tested as Fab
B14: h3G10 VH / h3G10 VL Fab (Fab, V domains shown)
VH: B1 VH with F57G
VL: B1 VL with R99N
notes: Tested as Fab; also called h3G10 Fab
B15: h3G10.A57 VH / h3G10.2.25 VL Fab (Fab, V domains shown)
VH: B1 VH
VL: B1 VL with K24R
notes: Tested as Fab
B16: h3G10.1.33 VH / h3G10.2.72 VL Fab (Fab, V domains shown)
VH: B1 VH with K67T
VL: B1 VL
notes: Tested as Fab
B17: h3G10.2.37 VH / h3G10.A58B VL Fab (Fab, V domains shown)
VH: B1 VH with T60R
VL: B1 VL with R33H, E61G, R99N
notes: Tested as Fab
B18: h3G10.2.37 VH / h3G10.A58A VL Fab (Fab, V domains shown)
VH: B1 VH with T60R
VL: B1 VL with R33H, E61G
notes: Tested as Fab
B19: h3G10.1.91 VH / h3G10.A58B VL Fab (Fab, V domains shown)
VH: B1 VH with Y58E
VL: B1 VL with R33H, E61G, R99N
notes: Tested as Fab
B20: h3G10.1.91 VH / h3G10.A58A VL Fab (Fab, V domains shown)
VH: B1 VH with Y58E
VL: B1 VL with R33H, E61G
notes: Tested as Fab
B21: h3G10.A57 VH / h3G10.A58B VL Fab (Fab, V domains shown)
VH: B1 VH
VL: B1 VL with R33H, E61G, R99N
notes: Tested as Fab
B22: humanized anti-CXCR4 antibody h3G10.A57 (antibody, V domains shown)
VH: B1 VH
VL: B1 VL with R99N
B23: humanized anti-CXCR4 antibody h3G10.2.37.2.72 (antibody, V domains shown)
VH: B1 VH with T60R
VL: B1 VL
B24: humanized anti-CXCR4 antibody h3G10.A57.A58A (antibody, V domains shown)
VH: B1 VH
VL: B1 VL with R33H, E61G
B25: humanized anti-CXCR4 antibody h3G10.1.91.A58A (antibody, V domains shown)
VH: B1 VH with Y58E
VL: B1 VL with R33H, E61G
B26: humanized anti-CXCR4 antibody h3G10 (antibody, V domains shown)
VH: B1 VH with F57G
VL: B1 VL with R99N

What follows are binders tested against T1, human CXCR4 (chemokine (C-X-C motif) receptor 4) (human, UniProt P61073 1-352) (assay: flow cytometry on HPB-ALL cells, Fab at 0.25 µg/ml).
T1 construct: Endogenous on human tumour cell lines (Ramos, HPB-ALL, Raji, Jurkat, MM1.S, RPMI-8226, MOLP-8, MOLT-4) or transfected into CHO-K1 cells (DiscoveRx); also called CXCR4 receptor
T1 sequence (P61073 whole entry): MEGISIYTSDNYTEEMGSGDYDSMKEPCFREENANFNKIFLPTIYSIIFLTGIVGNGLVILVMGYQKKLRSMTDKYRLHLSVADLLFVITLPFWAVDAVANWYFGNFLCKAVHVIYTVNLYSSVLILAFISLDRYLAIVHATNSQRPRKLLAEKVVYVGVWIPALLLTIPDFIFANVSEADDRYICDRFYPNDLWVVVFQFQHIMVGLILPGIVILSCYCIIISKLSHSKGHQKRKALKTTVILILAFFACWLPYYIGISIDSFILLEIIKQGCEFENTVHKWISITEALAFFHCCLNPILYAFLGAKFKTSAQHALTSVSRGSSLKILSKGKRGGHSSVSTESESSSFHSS

Binder	MFI
B1	1220
B2	3610
B3	2920
B4	390
B5	5120
B6	768
B7	396
B8	868
B9	2670
B10	1740
B11	454
B12	929
B13	1760
B14	563
B15	1380
B16	848

What follows are binders tested against T2, human CXCR4-enriched lipoparticles (LEV101, Integral Molecular) (human, UniProt P61073 1-352) (assay: biosensor kinetic titration, Fab over captured human CXCR4 lipoparticles).
T2 construct: Bought reagent; CXCR4 held in lipoparticles captured by biotinylated WGA on an SA chip; also called Lipoparticles containing CXCR4 proteins
T2 sequence (P61073 whole entry): as above
Method: The binding affinity of each Fab was determined using human CXCR4-enriched lipoparticles (LEV101, Integral Molecular, Philadelphia Pa.). Biotinylated WGA (Sigma Aldrich, St. Louis Mo.)) can be coated on the SA chip to facilitate capturing lipoparticles containing CXCR4 proteins. […] J. Mol. Recognit.

Binder	Kd [nM]	koff [s⁻¹]	kon [M⁻¹ s⁻¹]	t½ [min]
B1	1.12	0.0013	1.1e+06	9
B2	0.39	0.00063	1.6e+06	18.2
B3	0.35	0.0008	2.3e+06	14.4
B17	0.56	0.000449	797000	25.7
B8	1.22	0.00143	1.17e+06	8.08
B18	0.32	0.000418	1.29e+06	27.6
B9	0.33	0.00049	1.5e+06	23.5
B19	0.36	0.000286	803000	40.4
B20	0.38	0.000341	908000	33.9
B14	1.9	0.003	1.6e+06	3.9
B21	0.75	0.000515	688000	22.4

These binders were tested against T1, human CXCR4 (chemokine (C-X-C motif) …) (assay: cell-based or functional assay).

Binder	IC50 (M), Calcium Flux Activity (average of 3 experiments) [M]
B22	1.69e-09
B23	1.36e-09
B24	1.31e-09
B25	2.35e-09
B26	2e-09

These binders were tested against T1, human CXCR4 (chemokine (C-X-C motif) …) (assay: flow cytometry on HPB-ALL cells, Fab at 2.5 µg/ml).

Binder	MFI
B1	4330
B2	7400
B3	6240
B4	2790
B5	9410
B6	4120
B7	2810
B8	4060
B9	7020
B10	4610
B11	2680
B12	2780
B13	4720
B14	2460
B15	5000
B16	4140

Molecular target: T1, human CXCR4 (chemokine (C-X-C motif) …)
Assay: cell-based or functional assay
Remark: another data set of the same source

Binder	EC50 (M), cAMP assay, CHO-K1 cells transfected with human CXCR4 [M]
B23	3.41e-08
B24	2.43e-08

Each binder was assayed against T1, human CXCR4 (chemokine (C-X-C motif) …) (assay: flow cytometry on HPB-ALL cells, Fab at 0.25 µg/mL).
Method: Binding of CXCR4 Fabs to CXCR4-expressing cells were measured by flow cytometry on HPB-ALL (Human T cell leukemia) cells. 150,000 HPB-ALL cells were resuspended in 100 uL FACS buffer (1×PBS+0.5% BSA) on 96 well plates. […] After removing the primary antibodies the cells were washed twice with FACS buffer and then resuspended in FACS buffer and 2 uL (3 ug) of 2nd Ab (Alexa Fluor 647-conjugated goat anti-human IgG, F(ab′)2 specific, Jackson ImmunoResearch Laboratories, West Grove Pa.) was then added to each well. The plates were incubated at 4 degree for another 30 min. Fluorescence signals were acquired by cell analyzer LSRII (BD Biosciences, San Jose Calif.).

Binder	MFI
B1	2770
B2	3890
B3	2890
B17	4550
B8	1340
B18	4070
B9	2350
B19	4630
B20	5050
B14	1360
B21	3090
